Laboratory results: patent US20240309087A1 (SHANGHAI JUNSHI BIOSCIENCES, published 2024)

Target: T1, hCD112R mFC recombinant protein (human; murine, UniProt Q6DKI7 41-160)
T1 construct: range 41-160; expressed in 293E cells; also called hCD112R ECD mFC; hCD112R-ECD-mFC; not shown: murine IgG2a Fc domain (MX2-mFc vector)
T1 sequence (looked up): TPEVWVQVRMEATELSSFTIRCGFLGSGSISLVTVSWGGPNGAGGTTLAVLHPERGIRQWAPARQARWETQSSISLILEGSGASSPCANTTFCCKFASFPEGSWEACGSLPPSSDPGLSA
Test: Biacore T200, antibody captured, hCD112R mFc injected
Description: Biacore T200 was used to assay the binding affinity of the anti-CD112R hybridoma antibodies for the recombinant hCD112R mFc protein. […] antibody fragments (Jackson ImmunoResearch) were coupled to the surface of a CM5 chip, and the anti-CD112R hybridoma antibodies were each captured by using the chip, after which recombinant hCD112R mFc proteins at different concentrations were injected into the CM5 chip.

- Kd: 0.0588 nM
B1: 8H8.1 (antibody, V domains shown)
VH: EVKLVESGGGLVKPGGSLKVSCAASGFTFSDYPMSWVRQTPDKRLEWVACIDTDENTYYPDSVKGRFTISRDNGRNIVNLQMSSLRSEDAAMYYCARGWDDYAAWFAYWGQGTLVTVSA
VL: ENVLTQFPAIMSVFLGERVTMSCRASSSVNYMYWYQQKSDASPKLWIYHTSNLAPGVPARFSGSGSGNSYSLTISSMEGEDAATYYCQQFTSSPWTFGGGTKLEIK
notes: murine hybridoma antibody
